# The nanobody polyreactivity screen of Harvey et al. (2022)
# Experiment: yeast display, Sf9 membrane polyspecificity reagent, FACS + sequencing; frameworks hold sequencing errors
# Procedure, shortened: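 Galactose induction of a Saccharomyces cerevisiae BJ5465 synthetic nanobody display library ran 36–48 hours. The cells were then stained for 1 hour at 4 °C with 10% biotinylated, detergent-solubilized Sf9 membrane reagent, pulled down on streptavidin microbeads and FACS-sorted into low and high (top ~1%) gates on expression and reagent-binding fluorescence. Labels for polyreactivity follow the gate of origin.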
row,Sequence,polyreactivity (PSR sort gate)
1,QVQLVESGGGLVQAGGSLRLSCAASGRTFRGYAMGWYRPAPGKERELVAVISRGGRTNYADSVKGRFTISRDNAKNTVYLQMNSLKPEDTAVSYCAAEVAFIYSLRYDYWGQGTQVTVSS,high polyreactivity
2,QVQLVESGGGLVQAGGSLRLSCAASGRTFRGYAMGWYRQAPGKERELGAAITSSGGRTYYADSVKGRFTISRDNAKNTVYLQMNSLKPVDTAVYYCAKDYYSPRGYDYWGQGTQVTVSS,high polyreactivity
3,QVQLVESGGGLVQAGGSLRLSCAASGRTFRGYAMGWYRQAPGKERELVAGIRRGGSTNYADSVKGRFTISRDNSKNTVSLQMNSLKPEDTAVYYCAKTYTVSQPSLRTYYYWGQGTQVTVSS,high polyreactivity
4,QVQLVESGGGLVQAGGSLRLSCAASGRTFRINAMGWYRQAPGKERELVAAISFRTDSTYYADSVKGRFTISRDNAKNTVYLQMNSLKPEDTAVYYCDARGLQVRTYDYWGQGTQVTVSS,high polyreactivity
5,QVQLVESGGGLVQAGGSLRLSCAASGRTFRKNAMGWSRQAPGKDRELVAAISASGTSTYYADSVKGRFTISRDNAKNTVYLQLNSLKPEDTAVYYSAARSYGIYDYWGQGTQVTVSS,high polyreactivity
6,QVQLVESGGGLVQAGGSLRLSCAASGRTFRKYGMGWYRPAPGTERELVAAITRSGGSTYYADSVKGRFTISRDNAKNTVYLQMNCLKPEDTSVYYCARSPVVVGSFLSYDYLGQGTQVTVSS,high polyreactivity
7,QVQLVESGGGLVQAGGSLRLSCAASGRTFRLNAMGWYRQAPGKERELVAGIRVRAGTTYYADSVKGRFTISRDNAKNTVYLQRNSLKPEDTAVYYCAAESYSRSRKYDYWGQGTQVTVSS,high polyreactivity
8,QVQLVESGGGLVQAGGSLRLSCAASGRTFRLNGMGWYRQAPGKERELVAAITWSGGRTDYADSVKGRFTISRDNAKNTVYLQMNSLKPEDTAVYYCAAGKSSYGKPKYYYWGQGTQVTVSS,high polyreactivity
9,QVQLVESGGGLVQAGGSLRLSCAASGRTFRLNVMGWYRQAPGKERELVATISWSGGTTYYADSVKGRFTISRDNAKNTVYFQMNCLKPEDTAVYYCNRQVTWYPTGGYWGQGTQVTVSS,low polyreactivity
10,QVQLVESGGGLVQAGGSLRLSCAASGRTFRLYAMGWYRDATGKERELFAAISRRGTSTHYADSVKGRFTISRDNAKNTVYLQMNSLKPEDTAVYYCAVDSNTYSFYGTHDDWGQGTQVTVSS,high polyreactivity
11,QVQLVESGGGLVQAGGSLRLSCAASGRTFRLYAMGWYRQAPGKERELVAAISWRGGRTYYADSVKGRFTISRDNAKNTVYLQMNSLKPEDTAVYYCAAEDGYGQYDYWGQGTQVTVSS,high polyreactivity
12,QVQLVESGGGLVQAGGSLRLSCAASGRTFRLYAMGWYRQAPGKERELVATITSSGGSTYYADSVKGRFTISRDKAKNTVYLQMNSLKPEDTAVYYCAAQTYYSYDYWGQGTQVTVSS,low polyreactivity
13,QVQLVESGGGLVQAGGSLRLSCAASGRTFRNNAMGWYRQAPGKERELVAAISRTGGRTYYADSVKGRFTISRDNAKNTVYLQMNSLKPEDTAVYYCNAAYLVREYDYWGQGTQVTVSS,high polyreactivity
14,QVQLVESGGGLVQAGGSLRLSCAASGRTFRNYAMGWYRQAPGKERELVAAISRSGGITYYADSVKGRFTISRDNSKNTVYLQMNSLKPEDTAVYYCAARHTYQGPGTYPMFYWGQGTQVTVSS,high polyreactivity
15,QVQLVESGGGLVQAGGSLRLSCAASGRTFRPYAMGWDRQAPGKEREFVAAIRSSGDSTYYADSVKGRFTISRDNAKNTVYLQMNSLKPEDTAVYYCAADVYRYRVRGMNYWGQGTQVTVSS,high polyreactivity
16,QVQLVESGGGLVQAGGSLRLSCAASGRTFRPYAMGWYRQAPGKERELVAAIDSSGTSTYYADSVKGRFTISRDNAKNTVYLQMYSLKPEDTAVYYCAKAWPDHWYSRYDYWGQGTQVTVSS,low polyreactivity
17,QVQLVESGGGLVQAGGSLRLSCAASGRTFRPYAMGWYRQAPGKERELVAAITSCGSTYYADSVKGRFTISRDNAKNTVYLQMNSLKPEDTAVYYCNAKYYYQPPYDYWGQGTQVTVSS,low polyreactivity
18,QVQLVESGGGLVQAGGSLRLSCAASGRTFRPYAMGWYRQAPGKERELVAAITSGVSTYYADSVKGRFTISRDNAKNTVYLQMNSLKPEDTAVYYCNKVISREVGIRMDYWGQGTQVTVSS,high polyreactivity
19,QVQLVESGGGLVQAGGSLRLSCAASGRTFRQYAMGWYRQAPGKERELVATISSGGSTYYADSVKGRFTISRDNAKNTVYLLMNSLKPEDTAVYYCAAPYWARKYWRKFGPFDYWGQGTQVTVSS,low polyreactivity
20,QVQLVESGGGLVQAGGSLRLSCAASGRTFRQYAMGWYRQSPGKERELVATISGGGGNTYYADSVKGSFTISRDNAKNTVYLQMNSLKQEDTAVYYCAARRRDRPVRGYDYWGQGTQVTVSS,high polyreactivity
21,QVQLVESGGGLVQAGGSLRLSCAASGRTFRRNAMGWYRQAPGKERELVAAINTGGGTYYADSVKGRFTISRDHAKNTVYLQMNSLKPEDTAVYYCNAGTRYGSFSYVKYDWGQGTQVTVSS,high polyreactivity
22,QVQLVESGGGLVQAGGSLRLSCAASGRTFRRNAMGWYRQAPGKERELVAAIRWSSGSTYYADSVNGRFTISRDNAKNTVYLQMNSLKPEDTAVYYCAADGDWYGYIWQSDDGYDSWGQGTQVTVSS,low polyreactivity

row,Sequence,polyreactivity (PSR sort gate)
1,QVQLVESGGGLVQAGGSLRLSCAASGRTFRRNAMGWYRQAPGKERELVAPISRGGSTNYADSVKGRFSISRDNAKNTVYLQMNSMKPEDTAVFYCAARYYYRYNYWGQGTQVTVSS,high polyreactivity
2,QVQLVESGGGLVQAGGSLRLSCAASGRTFRRNAMGWYRQAPGKERELVASINRGGGTNYADSVKGRFTISRDNAKHTVYLQMNSLKPEDTAVYYCAAGPGTYWGYDYWGQGTQVTVSS,low polyreactivity
3,QVQLVESGGGLVQAGGSLRLSCAASGRTFRRNAMGWYRQAPGKERELVATITGGGRTNYADSVKGRFTISRDNAKNTVYLQMNSLKPEDTAVYYCAAAAGSYNTGYGYWGQGTQVTVSS,high polyreactivity
4,QVQLVESGGGLVQAGGSLRLSCAASGRTFRRNAMGWYRQAPGKEWELVADISNGDSTKYADSVKGRFTISRDNAKNTVYLQMNSLKPEDTAVYYCNAQRYRVVVYNSHGWQTRNYWGQGTQVTVSS,low polyreactivity
5,QVQLVESGGGLVQAGGSLRLSCAASGRTFRRNTMGWYRQAPGQEWELVAAISSSGSSTYYADSVKGRFTISRDNAKNTVYLQMKSLKPEDTAVYYCAATGYPRFGYWGQGTQVTVSS,high polyreactivity
6,QVQLVESGGGLVQAGGSLRLSCAASGRTFRRYAMGWYRQAPGKERELVAAIRSDGSTYYADSVKGRFTISRDNAKNTVYLQMNSLKPEDTAVYYCAKVLDQRRRYDYWGQGTQVTVSS,low polyreactivity
7,QVQLVESGGGLVQAGGSLRLSCAASGRTFRRYAMGWYRQAPGKERELVAAISRSGGSTSYADSVKGRFTISRDNAKNTVYLQMKSLKPEDTAVYYCAVEVASYDRRPSEYYWGQGTQVTVSS,high polyreactivity
8,QVQLVESGGGLVQAGGSLRLSCAASGRTFRRYTMGWYRQAPGKESELVATISSGGSTYADSVKGRFTISLDNAKNTVYLQMNSLKPEDTAVYYCAARYDVAWYSKRYSWGQGTQVTVSS,high polyreactivity
9,QVQLVESGGGLVQAGGSLRLSCAASGRTFRSYAMGWYRQAPGKERELVAAITRTGSTYYADSVKGRFTISRDNAKNTVYLQMNSLKPEDTAVYYCAARFVYGYDYWGQGTEVTVSS,high polyreactivity
10,QVQLVESGGGLVQAGGSLRLSCAASGRTFRSYAMGWYRQAPGKERELVAGITTSGGSTYYADSVKGRFTISRDNAKNTVYLQMNSLKPEDTAVYYCNARSWYSFHPHDYWGQGTQVTVSS,high polyreactivity
11,QVQLVESGGGLVQAGGSLRLSCAASGRTFRSYTRGWYRQAAGKERELVAAINRGDRTYADSVKGRFTISRDNAKNTVYLQMNSLKPEDTAVYYCAARYYGGYGKQPRARYGYWGQGTQVTVSS,high polyreactivity
12,QVQLVESGGGLVQAGGSLRLSCAASGRTFRTYAMGWYRQAPGKERELVAAITTSGSSTYYADSVNGRFTISRDNAKKTVYLQMNILKPEDTAVYYCAAARAAIVPGYYSWGQGSQVTVSS,low polyreactivity
13,QVQLVESGGGLVQAGGSLRLSCAASGRTFRTYTMGWYRQAPGKERELVAAISIGGRTNYADSVKGRFTISRDNAKNTVFLQMNSLKPEDTAVYYCIAARWVPRSYGYWGLGTQVTVSS,high polyreactivity
14,QVQLVESGGGLVQAGGSLRLSCAASGRTFRTYVMGWYRQAPGKEREFVAGITWSSGSTRYADSVKGRFTISRDNAKNTVYLQMNSLKPEDTAVYYCAAKRWPGTDGYWGQGTQVTVSS,high polyreactivity
15,QVQLVESGGGLVQAGGSLRLSCAASGRTFRTYVMGWYRQAPGKERELVAAITGSGGSTYYADSVKGRFTISRDNAKNTVYLQMNSLKPEDTAVYYCAADYRWDYYWYDYAEYDYWGQGTQVTVSS,low polyreactivity
16,QVQLVESGGGLVQAGGSLRLSCAASGRTFRTYVMGWYRRAPGKEREFVAGITWSSGSTRYADSVKGRFTISRDNAKNTVYLQMNSLKPEDTAVYYCAAKRWPGTDGYWGQGTQVTVSS,high polyreactivity
17,QVQLVESGGGLVQAGGSLRLSCAASGRTFRVYAIGWYRQAPGKERELVAAISGSGGSTYYADSVKGRFTISRDNAKNTVYLQMISLKPEDTAVYYCAKGSYRSYWYRAYDYWGQGTQVTVSS,low polyreactivity
18,QVQLVESGGGLVQAGGSLRLSCAASGRTFRVYAMGWYRPAPGKERELVATITSSGGSTYYADSVKGRFTISRDNAKNTVYLQMNSLKPEDTAVYYCNVSVYYNYDSSYYYWGQGTQVTVSS,low polyreactivity
19,QVQLVESGGGLVQAGGSLRLSCAASGRTFRVYAMGWYRPAPGKERELVATITSSGGSTYYADSVKGRFTISRDNAKNTVYLQMNSLKPEDTGVYYCNVSVYYNYDSSYYYWGQGTQVTVSS,low polyreactivity
20,QVQLVESGGGLVQAGGSLRLSCAASGRTFRVYAMGWYRQAPGKEREFVAAISYSGGRTYYADSVKGRFTISRDNAKNTVYLQMKSLKPEDTAVYYCAKRVPYGRGVTGYYWGQGTQVTVSS,high polyreactivity
21,QVQLVESGGGLVQAGGSLRLSCAASGRTFRVYAMGWYRQAPGKERELVAAINGRGGSTYYADSVKGRFTISRDNAKNTVYFQLNSLKPEDTAVYYCNALARTSWRMDYWGQGTQVTVSS,high polyreactivity
